Article PMC5101663

Biological target: Acinetobacter phage AP205 SpyTag-VLP (one SpyTag per VLP subunit) (Acinetobacter phage AP205)
Assay: covalent conjugation shown by reduced SDS-PAGE with densitometry; antigen and Spy-VLP mixed at 1.5:1 molar ratio (antigen per VLP subunit), overnight at 4 °C in PBS, 0.2% Polysorbate 80, pH 7.2; covalent SpyTag/SpyCatcher bond

“HIS-CSP-SpyCatcher antigen (from UniProt Q7K740 25-383)” was tested, and the stoichiometry N (CSP antigens per VLP) was 112.
